One block for each binder: values may come before it.
Target: BTN3A expressed at the cell surface (human), O00481
Experiment: cell-based or functional assay

BTN3A expressed at the cell surface (human), O00481, sequence (O00481 30-513): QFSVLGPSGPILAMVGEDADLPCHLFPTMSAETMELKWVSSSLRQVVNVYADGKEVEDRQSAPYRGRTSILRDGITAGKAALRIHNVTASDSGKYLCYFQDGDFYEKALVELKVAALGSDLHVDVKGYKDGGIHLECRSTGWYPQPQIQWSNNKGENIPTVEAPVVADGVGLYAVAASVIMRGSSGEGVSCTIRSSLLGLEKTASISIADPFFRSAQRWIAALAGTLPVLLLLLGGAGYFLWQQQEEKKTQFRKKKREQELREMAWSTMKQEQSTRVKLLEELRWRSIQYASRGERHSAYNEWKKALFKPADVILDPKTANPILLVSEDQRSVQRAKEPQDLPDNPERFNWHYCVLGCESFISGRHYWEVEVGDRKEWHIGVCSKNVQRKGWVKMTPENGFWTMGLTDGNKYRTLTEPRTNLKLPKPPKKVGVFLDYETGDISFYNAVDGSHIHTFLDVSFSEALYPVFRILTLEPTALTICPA

B3: bsAb050 (bispecific antibody, not shown: small tags and cut ends)
heavy 1: EVQLVESGGGLVQPGGSLRLSCAASGFTFSRYWMSWVRQAPGKGLEWVANIKQDGSEKYYVDSVKGRFTISRDNAKNSLYLQMNSLRAEDTAVYYCAREGGWFGELAFDYWGQGTLVTVSSGGGGSGGGGSGGGGSGGGGSEIVLTQSPGTLSLSPGERATLSCRASQRVSSSYLAWYQQKPGQAPRLLIYDASSRATGIPDRFSGSGSGTDFTLTISRLEPEDFAVYYCQQYGSLPWTFGQGTKVEIKGGGGSGGGGSGGGGSGGGGSQVQLVQSGAEVKKPGASVKLSCKASGYIFTRYYMYWVKQRPGQGLEWIGEINPNNGGTKFNEKFKNRATLTVDKSISTAYMELSRLRSDDTAVYYCSREDDYDGTPFAMDYWGQGTLVTVSS
heavy 2: QVQLVQSGAEVKKPGASVKLSCKASGYIFTRYYMYWVKQRPGQGLEWIGEINPNNGGTKFNEKFKNRATLTVDKSISTAYMELSRLRSDDTAVYYCSREDDYDGTPFAMDYWGQGTLVTVSS
light: not shown
Jurkat-Vy9Vo2 TCR MOP activation at 0.5 nM (fold-change to medium): 10.1
Jurkat-Vy9Vo2 TCR MOP activation at 5 nM (fold-change to medium): 9.3

B4: bsAb055 (bispecific antibody, not shown: a dimerising Fc or GST; small tags and cut ends)
heavy 1: GGGGSGGGGSGGGGSGGGGSEVQLVESGGGLVQPGGSLRLSCAASGFTFSRYWMSWVRQAPGKGLEWVANIKQDGSEKYYVDSVKGRFTISRDNAKNSLYLQMNSLRAEDTAVYYCAREGGWFGELAFDYWGQGTLVTVSSGGGGSGGGGSGGGGSGGGGSEIVLTQSPGTLSLSPGERATLSCRASQRVSSSYLAWYQQKPGQAPRLLIYDASSRATGIPDRFSGSGSGTDFTLTISRLEPEDFAVYYCQQYGSLPWTFGQGTKVEIK
heavy 2: B3 heavy 2
light: not shown
Jurkat-Vy9Vo2 TCR MOP activation at 0.5 nM (fold-change to medium): 2.9
Jurkat-Vy9Vo2 TCR MOP activation at 5 nM (fold-change to medium): 11.8

B5: bsAb048 (bispecific antibody, not shown: small tags and cut ends)
heavy 1: EIVLTQSPGTLSLSPGERATLSCRASQRVSSSYLAWYQQKPGQAPRLLIYDASSRATGIPDRFSGSGSGTDFTLTISRLEPEDFAVYYCQQYGSLPWTFGQGTKVEIKGGGGSGGGGSGGGGSGGGGSEVQLVESGGGLVQPGGSLRLSCAASGFTFSRYWMSWVRQAPGKGLEWVANIKQDGSEKYYVDSVKGRFTISRDNAKNSLYLQMNSLRAEDTAVYYCAREGGWFGELAFDYWGQGTLVTVSSGGGGSGGGGSGGGGSGGGGSQVQLVQSGAEVKKPGASVKLSCKASGYIFTRYYMYWVKQRPGQGLEWIGEINPNNGGTKFNEKFKNRATLTVDKSISTAYMELSRLRSDDTAVYYCSREDDYDGTPFAMDYWGQGTLVTVSS
heavy 2: B3 heavy 2
light: not shown
Jurkat-Vy9Vo2 TCR MOP activation at 0.5 nM (fold-change to medium): 8.2
Jurkat-Vy9Vo2 TCR MOP activation at 5 nM (fold-change to medium): 7.9

B7: bsAb040 (bispecific antibody, not shown: small tags and cut ends)
heavy (part 1 of 2): B3 heavy 2
heavy (part 2 of 2): GGGGSGGGGSGGGGSGGGGSEIVLTQSPGTLSLSPGERATLSCRASQRVSSSYLAWYQQKPGQAPRLLIYDASSRATGIPDRFSGSGSGTDFTLTISRLEPEDFAVYYCQQYGSLPWTFGQGTKVEIKGGGGSGGGGSGGGGSGGGGSEVQLVESGGGLVQPGGSLRLSCAASGFTFSRYWMSWVRQAPGKGLEWVANIKQDGSEKYYVDSVKGRFTISRDNAKNSLYLQMNSLRAEDTAVYYCAREGGWFGELAFDYWGQGTLVTVSS
heavy: B3 heavy 2
light: not shown
Jurkat-Vy9Vo2 TCR MOP activation at 0.5 nM (fold-change to medium): 10.4
Jurkat-Vy9Vo2 TCR MOP activation at 5 nM (fold-change to medium): 8.8

Continued, values first:

Jurkat-Vy9Vo2 TCR MOP activation at 0.5 nM (fold-change to medium): 6
Jurkat-Vy9Vo2 TCR MOP activation at 5 nM (fold-change to medium): 4.2
B1: bsAb005 (bispecific antibody)
heavy: QVQLVQSGAEVKKPGASVKLSCKASGYIFTRYYMYWVKQRPGQGLEWIGEINPNNGGTKFNEKFKNRATLTVDKSISTAYMELSRLRSDDTAVYYCSREDDYDGTPFAMDYWGQGTLVTVSSASTKGPSVFPLAPSSKSTSGGTAALGCLVKDYFPEPVTVSWNSGALTSGVHTFPAVLQSSGLYSLSSVVTVPSSSLGTQTYICNVNHKPSNTKVDKRVEPKSCDKTHTCPPCPAPEFEGGPSVFLFPPKPKDTLMISRTPEVTCVVVDVSHEDPEVKFNWYVDGVEVHNAKTKPREEQYNSTYRVVSVLTVLHQDWLNGKEYKCKVSNKALPASIEKTISKAKGQPREPQVYTLPPSREEMTKNQVSLTCLVKGFYPSDIAVEWESNGQPENNYKTTPPVLDSDGSFFLYSKLTVDKSRWQQGNVFSCSVMHEALHNHYTQKSLSLSPGGGGGSGGGGSGGGGSGGGGSEIVLTQSPATLSLSPGERATLSCRASKGVSTSGYSYLHWYQQKPGQAPRLLIYLASYLESGVPARFSGSGSGTDFTLTISSLEPEDFAVYYCQHSRDLPLTFGGGTKVEIKGGGGSGGGGSGGGGSGGGGSQVQLVQSGVEVKKPGASVKVSCKASGYTFTNYYMYWVRQAPGQGLEWMGGINPSNGGTNFNEKFKNRVTLTTDSSTTTAYMELKSLQFDDTAVYYCARRDYRFDMGFDYWGQGTTVTVSS
light: not shown

Jurkat-Vy9Vo2 TCR MOP activation at 0.5 nM (fold-change to medium): 14.1
Jurkat-Vy9Vo2 TCR MOP activation at 5 nM (fold-change to medium): 11.2
B2: bsAb035 (bispecific antibody, not shown: small tags and cut ends)
heavy (part 1 of 2): B3 heavy 2
heavy (part 2 of 2): B4 heavy 1
heavy: B3 heavy 2
light: not shown

Jurkat-Vy9Vo2 TCR MOP activation at 0.5 nM (fold-change to medium): 1.5
Jurkat-Vy9Vo2 TCR MOP activation at 5 nM (fold-change to medium): 2.3
B6: bsAb051 (bispecific antibody, not shown: small tags and cut ends; a dimerising Fc or GST)
heavy (part 1 of 2): B3 heavy 2
heavy (part 2 of 2): B4 heavy 1
heavy: B4 heavy 1
light: not shown

Source: patent publication US20260265379A1
